Reference: patent publication US20250277196A1, “EPSPS MUTANTS AND METHOD OF ITS USES” (CROPEDIT BIOTECHNOLOGY INC., priority 2021, published 2025)
Where “and” joins values, the source holds several entries; their conditions need not be identical. Equal entries are not always repeated.

Columns and labels:
[1] = tested on: E. coli lacking EPSPS; test: Glyphosate resistance comparison among rice EPSPS mutants: growth of transformed E. coli on M9 medium with different glyphosate concentrations; format: cell-based, Escherichia coli; details: M9 medium; for glyphosate concentration of the medium on which the strain can grow: tested 0, 0.5, 2, 4, 5, 25, 75, 100 mM glyphosate, FIG. 2, FIG. 3
Method: (§1) a) PCR system: According to the primer and template mixed PCR system corresponding to the target vector in the above table, the forward primer was 1.25 μl, the reverse primer was 1.25 μl, the template plasmid was 2 μl, the Q5 PCR master mix was 12.5 μl, and ddH2O was […].
b) PCR reaction conditions were as following: the annealing temperature was set according to the annealing temperature corresponding to the target carrier in the above table.
(§2) c) Took out 5 μl of the obtained PCR product and added it to the loading buffer for agarose gel electrophoresis. A band with a size of about 4.5 kb was considered successful.
(§3) d) Used NEB's KLD enzyme mixture to remove the template and connected the PCR product. The connection system was 5 μl KLD buffer, 1 μl KLD MIX, 1 μl PCR product, and ddH2O 3 μl. After ligating at room temperature for 5 min, transformed it into E. coli.
(§4) e) The ligation product was transformed into Dh5a competent E. coli lacking EPSPS. After resuscitation, the cells were washed twice with M9 medium, and then the washed cells were spread on M9 medium and cultured for 48 h. Sequenced the grown single colony (Tsingke Biological Technology Co., Ltd.), and selected the correct mutant to save for future use.
OsWt represents the wild type rice EPSPS(SEQ ID NO:2). […] OsGA represents the mutated rice EPSPS with mutation G172A. (SEQ ID NO:7) OsPS represents the mutated rice EPSPS with mutation P177S. (SEQ ID NO:8) OsGAPS represents the mutated rice EPSPS with mutation G172A and P177S. (SEQ ID NO:9) OsGAVA represents the mutated rice EPSPS with mutation G172A and V403A(SEQ ID NO:4). OsPSVA represents the mutated rice EPSPS with mutation P177S and V403A(SEQ ID NO:5). OsGPV represents the mutated rice EPSPS with mutation G172A, P177S and V403A(SEQ ID NO:6). OsTIPS represents the mutated rice EPSPS with mutation T173I and P177S. (SEQ ID NO: 35). OsTIPT represents the mutated rice EPSPS with mutation T173I and P177T. (SEQ ID NO:36). OsTIPSVA represents the mutated rice EPSPS with mutation T173I, P177S and V403A. (SEQ ID NO:37). OsTIPTVA represents the mutated rice EPSPS with mutation T173I, P177T and V403A. (SEQ ID NO:38). CP4 represents the wild type EPSPS from Agrobacterium tumefaciens. (SEQ ID NO:39)
Each product obtained from the above steps were transformed into E. coli lacking EPSPS. By detecting the growth of the transformed Escherichia coli on M9 medium containing different glyphosate concentrations (0 mM, 0.5 mM, 2 mM, 4 mM, 5 mM, 25 mM, 75 mM, 100 mM), the 1 mM glyphosate here was equivalent to […] glyphosate acid, the glyphosate resistance of rice EPSPS mutants was verified.

[2] = tested on: E. coli lacking EPSPS; test: Resistance identification of flax EPSPS mutants LuGPV, LuTIPT, LuTIPTVA (FIG. 5, FIG. 6); format: cell-based
From the text: The G172 position and P177 position of LuVA were mutated into A and S at the same time by PCR, and a 3-point mutant LuGPV was obtained.
The T173 and P177 positions of LuWT were simultaneously mutated to I and T by PCR, and a […] mutant LuTIPT was obtained.
The T173 and P177 positions of LuVA were simultaneously mutated to I and T by PCR, and a 3-point mutant LuTIPTVA was obtained.
as §1
b) PCR reaction conditions were as follows: the annealing temperature was set according to the annealing temperature corresponding to the target carrier in the above table.
as §2, §3, §4
The resistance results were shown in FIG. 5: LuWt(SEQ ID NO:26) represents the EPSPS2 gene of flax, LuGPV (SEQ ID NO:30) represents the flax G172A+P177S+V403A three-point mutant. The resistance results were shown in FIG. 6: LuTIPT (SEQ ID NO:28) was the flax T173I+[…] double-point mutants, LuTIPTVA (SEQ ID NO:29) was flax T173I+P177T+V403A three-point mutants.

Molecule | growth on 0.5 mM glyphosate medium [1] | glyphosate concentration of the medium on which the strain can grow [1] | further results
OsGAPS (protein, This sequence is synthesized in lab.) MAAKAEEIVLQPIREISGAVQLPGSKSLSNRILLLSALSEGTTVVDNLLNSEDVHYMLEALKALGLSVEADKVAKRAVVVGCGGKFPVEKDAKEEVQLFLGNAATAMRSLTAAVTAAGGNATYVLDGVPRMRERPIGDLVVGLKQLGADVDCFLGTECPPVRVKGIGGLPGGKVKLSGSISSQYLSALLMAAPLALGDVEIEIIDKLISIPYVEMTLRLMERFGVKAEHSDSWDRFYIKGGQKYKSPGNAYVEGDASSASYFLAGAAITGGTVTVQGCGTTSLQGDVKFAEVLEMMGAKVTWTDTSVTVTGPPREPYGKKHLKAVDVNMNKMPDVAMTLAVVALFADGPTAIRDVASWRVKETERMVAIRTELTKLGASVEEGPDYCIITPPEKLNITAIDTYDDHRMAMAFSLAACADVPVTIRDPGCTRKTFPNYFDVLSTFVRN | – | – | growth on medium containing 0 mM glyphosate ([1]; 0 mM glyphosate, complementation of E. coli EPSPS function): cannot grow
OsGA (protein, This sequence is synthesized in lab.) MAAKAEEIVLQPIREISGAVQLPGSKSLSNRILLLSALSEGTTVVDNLLNSEDVHYMLEALKALGLSVEADKVAKRAVVVGCGGKFPVEKDAKEEVQLFLGNAATAMRPLTAAVTAAGGNATYVLDGVPRMRERPIGDLVVGLKQLGADVDCFLGTECPPVRVKGIGGLPGGKVKLSGSISSQYLSALLMAAPLALGDVEIEIIDKLISIPYVEMTLRLMERFGVKAEHSDSWDRFYIKGGQKYKSPGNAYVEGDASSASYFLAGAAITGGTVTVQGCGTTSLQGDVKFAEVLEMMGAKVTWTDTSVTVTGPPREPYGKKHLKAVDVNMNKMPDVAMTLAVVALFADGPTAIRDVASWRVKETERMVAIRTELTKLGASVEEGPDYCIITPPEKLNITAIDTYDDHRMAMAFSLAACADVPVTIRDPGCTRKTFPNYFDVLSTFVRN | can grow | – | –
OsGAVA (protein, This sequence is synthesized in lab.) MAAKAEEIVLQPIREISGAVQLPGSKSLSNRILLLSALSEGTTVVDNLLNSEDVHYMLEALKALGLSVEADKVAKRAVVVGCGGKFPVEKDAKEEVQLFLGNAATAMRPLTAAVTAAGGNATYVLDGVPRMRERPIGDLVVGLKQLGADVDCFLGTECPPVRVKGIGGLPGGKVKLSGSISSQYLSALLMAAPLALGDVEIEIIDKLISIPYVEMTLRLMERFGVKAEHSDSWDRFYIKGGQKYKSPGNAYVEGDASSASYFLAGAAITGGTVTVQGCGTTSLQGDVKFAEVLEMMGAKVTWTDTSVTVTGPPREPYGKKHLKAVDVNMNKMPDAAMTLAVVALFADGPTAIRDVASWRVKETERMVAIRTELTKLGASVEEGPDYCIITPPEKLNITAIDTYDDHRMAMAFSLAACADVPVTIRDPGCTRKTFPNYFDVLSTFVRN | – | ≤ 75 mM | –
OsWt: wild type rice EPSPS (SEQ ID NO:2), chloroplast transit peptide removed (protein, This sequence is synthesized in lab.) MAAKAEEIVLQPIREISGAVQLPGSKSLSNRILLLSALSEGTTVVDNLLNSEDVHYMLEALKALGLSVEADKVAKRAVVVGCGGKFPVEKDAKEEVQLFLGNAGTAMRPLTAAVTAAGGNATYVLDGVPRMRERPIGDLVVGLKQLGADVDCFLGTECPPVRVKGIGGLPGGKVKLSGSISSQYLSALLMAAPLALGDVEIEIIDKLISIPYVEMTLRLMERFGVKAEHSDSWDRFYIKGGQKYKSPGNAYVEGDASSASYFLAGAAITGGTVTVQGCGTTSLQGDVKFAEVLEMMGAKVTWTDTSVTVTGPPREPYGKKHLKAVDVNMNKMPDVAMTLAVVALFADGPTAIRDVASWRVKETERMVAIRTELTKLGASVEEGPDYCIITPPEKLNITAIDTYDDHRMAMAFSLAACADVPVTIRDPGCTRKTFPNYFDVLSTFVRN | cannot grow | – | –
OsPSVA (protein, This sequence is synthesized in lab.) MAAKAEEIVLQPIREISGAVQLPGSKSLSNRILLLSALSEGTTVVDNLLNSEDVHYMLEALKALGLSVEADKVAKRAVVVGCGGKFPVEKDAKEEVQLFLGNGATAMRSLTAAVTAAGGNATYVLDGVPRMRERPIGDLVVGLKQLGADVDCFLGTECPPVRVKGIGGLPGGKVKLSGSISSQYLSALLMAAPLALGDVEIEIIDKLISIPYVEMTLRLMERFGVKAEHSDSWDRFYIKGGQKYKSPGNAYVEGDASSASYFLAGAAITGGTVTVQGCGTTSLQGDVKFAEVLEMMGAKVTWTDTSVTVTGPPREPYGKKHLKAVDVNMNKMPDAAMTLAVVALFADGPTAIRDVASWRVKETERMVAIRTELTKLGASVEEGPDYCIITPPEKLNITAIDTYDDHRMAMAFSLAACADVPVTIRDPGCTRKTFPNYFDVLSTFVRN | – | ≤ 4 mM | –
OsTIPTVA (protein, This sequence is synthesized in lab.) MAAKAEEIVLQPIREISGAVQLPGSKSLSNRILLLSALSEGTTVVDNLLNSEDVHYMLEALKALGLSVEADKVAKRAVVVGCGGKFPVEKDAKEEVQLFLGNAGIAMRTLTAAVTAAGGNATYVLDGVPRMRERPIGDLVVGLKQLGADVDCFLGTECPPVRVKGIGGLPGGKVKLSGSISSQYLSALLMAAPLALGDVEIEIIDKLISIPYVEMTLRLMERFGVKAEHSDSWDRFYIKGGQKYKSPGNAYVEGDASSASYFLAGAAITGGTVTVQGCGTTSLQGDVKFAEVLEMMGAKVTWTDTSVTVTGPPREPYGKKHLKAVDVNMNKMPDAAMTLAVVALFADGPTAIRDVASWRVKETERMVAIRTELTKLGASVEEGPDYCIITPPEKLNITAIDTYDDHRMAMAFSLAACADVPVTIRDPGCTRKTFPNYFDVLSTFVRN | – | 100 mM and 75 mM | –
OsPS (protein, This sequence is synthesized in lab.) MAAKAEEIVLQPIREISGAVQLPGSKSLSNRILLLSALSEGTTVVDNLLNSEDVHYMLEALKALGLSVEADKVAKRAVVVGCGGKFPVEKDAKEEVQLFLGNAGTAMRSLTAAVTAAGGNATYVLDGVPRMRERPIGDLVVGLKQLGADVDCFLGTECPPVRVKGIGGLPGGKVKLSGSISSQYLSALLMAAPLALGDVEIEIIDKLISIPYVEMTLRLMERFGVKAEHSDSWDRFYIKGGQKYKSPGNAYVEGDASSASYFLAGAAITGGTVTVQGCGTTSLQGDVKFAEVLEMMGAKVTWTDTSVTVTGPPREPYGKKHLKAVDVNMNKMPDVAMTLAVVALFADGPTAIRDVASWRVKETERMVAIRTELTKLGASVEEGPDYCIITPPEKLNITAIDTYDDHRMAMAFSLAACADVPVTIRDPGCTRKTFPNYFDVLSTFVRN | can grow | – | –
LuGPV (protein, This sequence is synthesized in lab.) DNA: MTVPEEIVLQPIKDISGIVTLPGSKSLSNRILLLAALSEGKTVVDNLLNSDDVHYMLGALKTLGLNVEHSSEQKRAIVEGRGGVFPVGKLGKNDIELFLGNAATAMRSLTAAVTAAGGNSSYILDGVPRMRERPIGDLVVGLKQLGADVSCSSTSCPPVHVNAKGGLPGGKVKLSGSISSQYLTALLMAAPLALGDVEIEIVDKLISVPYVDMTLKLMERFGVAVEHSGSWDRFFVKGGQKYKSPGNAYVEGDASSASYFLAGAAITGGTITVEGCGTSSLQGDVKFAEVLEKMGAKVTWTETSVTVTGPPRDASGKKHLRAVDVNMNKMPDAAMTLAVVALYADGPTAIRDVASWRVKETERMIAVCTELRKLGATVEEGPDYCIITPPEKLSIAEIDTYDDHRMAMAFSLAACADVPVTIRDPGCTKKTFPDYFEVLERYTKH | – | – | resistance compared with CP4 (colony saturation) ([2]; 100 mM glyphosate pressure): higher than CP4; glyphosate resistance ([2]; flax EPSPS mutant in E. coli, FIG. 5): strong glyphosate resistance
